Results reported in US20120264231A1, “ASSAY FOR ORAI CALCIUM CHANNEL REGULATORS” (IMMUNE DISEASE INSTITUTE, INC., priority 2009, published 2012).

Experiments:
human ORAI1 (65-301) = target: T1, human ORAI1 (65-301) (Homo sapiens, UniProt Q96D31, E106Q/N223A); test: Pichia membrane flotation assay, membranes containing ORAI1 (65-301); assay type: binding; conditions: sucrose gradient, Western blotting
T1 construct: human ORAI1 (65-301) with an N-terminal FLAG tag; made in house; host or cells: Pichia pastoris GS115 (microsomal membranes)
T1 sequence (Q96D31 65-301 E106Q/N223A): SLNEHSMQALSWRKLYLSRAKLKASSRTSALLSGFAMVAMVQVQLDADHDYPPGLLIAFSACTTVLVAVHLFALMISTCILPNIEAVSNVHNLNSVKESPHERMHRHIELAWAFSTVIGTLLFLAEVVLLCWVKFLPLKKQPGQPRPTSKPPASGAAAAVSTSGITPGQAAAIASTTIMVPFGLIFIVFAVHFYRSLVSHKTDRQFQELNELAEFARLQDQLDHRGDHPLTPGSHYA
Method: A membrane flotation assay was used to evaluate binding of these recombinant STIM 1 proteins to ORAI1. For these experiments ORAI1 (65-301) was expressed, an N-terminally truncated ORAI1 protein that forms functional Ca^2+ channels in mammalian cells (Li, Z., et al., J Biol Chem 282, 29448-29456 (2007)), in the yeast Pichia pastoris. Microsomal membranes were prepared from P pastoris expressing ORAI1 (65-301), layered at the bottom of a discontinuous sucrose gradient, and centrifuged. After centrifugation, the recombinant ORAI 1 was recovered near the top of the gradient in the fraction visually identified as containing membranes (FIG. 2A), as expected for an integral membrane protein.
STIM 1, ORAI 1, and D3 cpV/D4 cpV expression constructs were engineered as described herein. Recombinant STIM 1 fragments were expressed in E coli, purified, and characterized by CD spectroscopy and SEC-MALLS. Binding of STIM 1 fragments to ORAI1 channels in their normal bilayer environment was assessed in a flotation assay, using microsomal membranes prepared from the yeast P pastoris and containing human ORAI1 (65-301). Binding of STIM1 fragments to recombinant ORAI^CT was assessed in a pulldown assay using GST-tagged ORAI1^CT.
P pastoris strain GS115 was transformed with SalI-linearized pPIC3.5K-ORAI1 by electroporation and selected on plates lacking histidine. H is transformants were further grown in the presence of 0.25-4 mg/mL G418 to select for yeast that had integrated multiple copies of pPIC3.5K into the genome. Selected colonies capable of growth on 0.5-4 mg/mL G418 were grown in small-scale culture, induced with methanol as detailed below, and their level of ORAI expression determined by Western blotting for the FLAG tag. P pastoris transformants were grown in minimal dextrose medium lacking histidine and induced with 0.5% methanol for 6-18 h. Cells were pelleted at 3,000×g for 15 min at 4° C. and resuspended in breaking buffer containing 50 mM sodium phosphate, 1 mM TCEP, 1 mM EDTA, 5% glycerol and complete protease inhibitor cocktail (Roche). […]

CD thermal unfolding = assay type: physicochemical; conditions: CD signal at 222 nm, 20 μM protein, pH 7.5
Method: CD spectra of STIM 1^CT fragments were recorded in a Jasco-810 spectropolarimeter at 25° C. using a 1-mm path length quartz cell with the protein concentration at 20 μM in 10 mM Tris-HCl, 150 mM KCl, 1 mM DTT at pH 7.5. All spectra were obtained as the average of at least ten scans with a scan rate of 50 nm/min. The ellipticity was measured from 190 to 260 nm and converted to mean residue molar ellipticity (deg cm^2 dmol^−1 res^−1). The calculation of secondary structure elements was performed by using DICHROWEB, an online server for protein secondary structure analyses (Whitmore, L. & Wallace, B. A. Nucleic Acids Res 32, W668-W673 (2004)). Thermal unfolding measurements were performed using a 1 mm quartz cell with a protein concentration of 20 μM in the same buffer. To obtain the thermal transition point, the signal changes at 222 nm were fitted using the equation: ΔS=ΔSmax/[…]), where ΔS and ΔSmax are the signal changes at each data point and at the final data point, Tm and T are the transition temperature and experimental temperature, respectively, and k represents the transition rate.

binding to ORAI1 in membrane flotation (human ORAI1 (65-301)) | Substance | Tm (thermal unfolding) (CD thermal unfolding) [°C]
did not bind detectably | STIM1 (233-463): truncated mouse STIM1 cytoplasmic fragment, residues 233-463, His-tagged recombinant protein | 43.8±0.2
clearly bound ORAI | STIM1 (233-498): truncated mouse STIM1 cytoplasmic fragment, residues 233-498, His-tagged recombinant protein | 48.5±0.4

Substance | binding to ORAI1 in membrane flotation (human ORAI1 (65-301)) | Tm (thermal unfolding) (CD thermal unfolding) [°C]
STIM1^CT: cytoplasmic region of STIM1, mouse residues 233-685, His-tagged recombinant protein expressed in E coli | rose with the membranes into the upper part of the gradient | 47.0±0.3
